Source: patent US20050009745A1, “TSG101 as inhibitor of HIV production” (priority 2001, published 2005)
Where no end group is shown, it is not given here.

Tests used:
HIV-1 particles = assay: Release of HIV-1 virus-like particles from transfected COS-1 cells, Western blot with anti-CA; format: cell-based
[1] = Solubility of the peptide; format: physicochemical; details: precluded testing at higher concentrations
[2] = target: GAL4 activation domain-Tsg101 fusion protein (wild-type human Tsg101) (yeast; human) (UniProt Q99816); assay: cell-based or functional assay
[3] = target: GAL4 DNA-binding domain-p1-p6 fusion protein (yeast; HIV-1) (UniProt P04386); assay: cell-based or functional assay
HIV-1 Gag = format: cell-based

For `CC(C)CC[C@@H](O)[C@](C)(O)[C@H]1CC[C@@]2(O)C3=CC(=O)[C@@H]4C[C@@H](O)[C@@H](O)C[C@]4(C)[C@H]3CC[C@]12C` [pa, pronasterone, reference compound], the “effect on virus particle release” value (HIV-1 particles) was “no inhibitory effect”.

With ALQSRPEPTAPPEES the “solubility of the peptide” value [1] was “limited solubility”.

“GAL4 DNA-binding domain-p1-p6 with both PTAPP motifs deleted (from UniProt P04386 1-147; P03347 435-512)” gave a β-galactosidase activity (yeast 2-hybrid) [2] of less than 0.3%.

With “GAL4 DNA-binding domain-p1-p6 with the (LXX)4 repeat motif deleted (from UniProt P04386 1-147; P03347 435-512)” the β-galactosidase activity (yeast 2-hybrid) (% of wild-type) [2] was 55.

“GAL4 DNA-binding domain-p1-p6 with the first PTAPP motif deleted (from UniProt P04386 1-147; P03347 435-512)” gave a β-galactosidase activity (yeast 2-hybrid) (% of wild-type) [2] of 50.

For “GAL4 DNA-binding domain-p1-p6 with the first PTAPP motif deleted and Ala for Pro7 in the second motif (from UniProt P04386 1-147; P03347 435-512)”, the enzyme activity (β-galactosidase, yeast 2-hybrid) (% of wild-type) [2] was 25.

With “GAL4 DNA-binding domain-p1-p6 with the second PTAPP motif deleted (from UniProt P04386 1-147; P03347 435-512)” the β-galactosidase activity (yeast 2-hybrid) (% of wild-type) [2] was 25.

“GAL4 activation domain-Tsg101 Y110W (from UniProt P04386 768-881)” showed a 2-hybrid assay, percent of wild-type interaction (% of wild-type) [3] of 31.

“GAL4 activation domain-Tsg101 Y113V (from UniProt P04386 768-881)” gave a 2-hybrid assay, percent of wild-type interaction (% of wild-type) [3] of 33.

“GAL4 activation domain-Tsg101 with Ala for Thr67-Tyr68-Asn69 (from UniProt P04386 768-881)” gave a 2-hybrid assay, percent of wild-type interaction (% of wild-type) [3] of 5.

B1: pIND-h-Tsg101-FLAG: wild-type human Tsg101, FLAG-tagged, inducibly over-expressed from plasmid (protein)
chain: MAVSESQLKKMVSKYKYRDLTVRETVNVITLYKDLKPVLDSYVFNDGSSRELMNLTGTIPVPYRGNTYNIPICLWLLDTYPYNPPICFVKPTSSMTIKTGKHVDANGKIYLPYLHEWKHPQSDLLGLIQVMIVVFGDEPPVFSRPISASYPPYQATGPPNTSYMPGMPGGISPYPSGYPPNPSGYPGCPYPPGGPYPATTSSQYPSQPPVTTVGPSRDGTISEDTIRASLISAVSDKLRWRMKEEMDRAQAELNALKRTEEDLKKGHQKLEEMVTRLDQEVAEVDKNIELLKKKDEELSSALEKMENQSENNDIDEVIIPTAPLYKQILNLYAEENAIEDTIFYLGEALRRGVIDLDVFLKHVRLLSRKQFQLRALMQKARKTAGLSDLY
modifications: left off: small tags and cut ends
notes: wild-type human Tsg101, FLAG-tagged, inducibly over-expressed from plasmid
With B1 the “release of immature particles containing GagΔp6” value (HIV-1 particles; COS-1 cells, gagΔp6, Tsg101 overexpression, 0, 1, 5 μM pa) was “not significantly affected”, the “amount of mature CA in released virus, of the control (0 μM pa) level” value (HIV-1 particles; COS-1 cells, wild-type gag, 1 μM pa inducer) was roughly 60% and the “amount of mature CA in released virus, of the control (0 μM pa) level” value (HIV-1 particles; COS-1 cells, wild-type gag, 5 μM pa inducer) was roughly 30%. For the same molecule, the “viral protein in P1 fraction” value (HIV-1 Gag) was “no detectable viral protein” and the “viral protein in S1 fraction” value (HIV-1 Gag) was “no detectable viral protein”.

B2: SD5-59 (protein)
chain: MAVSESQLKKMVSKYKYRDLTVRETVNVITLYKDLKPVLDSYVFNDGSSRELMNLTGTIPVPYRGNTYNIPICLWLLDTYPYNPPICFVKPTSSMTIKTGKHVDANGKIYLPYLHEWKHPQSDLLGLIQVMIVVFGDEPPVFSRPISASYPPYQATGPPNTSYMPGMPGGISPYPSGYPPNPSGYPGCPYPPGGPYPATTSSQYPSQPPVTTVGPSRDGTISEDTIRASLISAVSDKLRWRMKEEMDRAQAELNALKRTEEDLKKGHQKLEEMVTRLDQEVAEVDKNIELLKKKDEELSSALEKMENQSENNDIDEVIIPTAPLYKQILNLYAEENAIEDTIFYLGEGGVIDLDVFLKHVRLLSRKQFQLRALMQKARKTAGLSDLY
modifications: left off: small tags and cut ends
For B2, the “Gag processing in released particles” value (HIV-1 particles; COS cells, wild-type gag, 1 and 5 μM pa) was “accumulation of particle-associated uncleaved Gag precursor”, the “release of virus particles” value (HIV-1 particles; COS cells, wild-type gag, increasing expression with 1 and 5 μM pa) was “permitted release of virus particles” and the “viral protein in P1 fraction” value (HIV-1 Gag) was “no protein was found”. For the same molecule, the “viral protein in S1 fraction” value (HIV-1 Gag) was “detectable levels of viral protein”.
